The record followed here is the supplement of paper PMC7125110.

B1: glmS ribozyme (parent)
chain: AUAAAAGCGCCAGAACUACAGAAAUGUAGUUGACGAGGAGGAGGUUUAUCGAAUUUUCGGCGGAUGCCUCCAAA

± gives the standard error. This sample holds only a part of the variants without activity.

Variants of B1 are the subject of one data set. As to the kind of experiment: self-cleavage kobs at 2500 uM GlcN6P; higher = faster cleavage; RNA array. The note with it: with glucosamine-6-phosphate. In short, it runs like this:
(§1)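 On sequenced MiSeq chips, barcoded ribozyme variants were made in situ by E. coli RNA polymerase and followed at 37 °C through a hybridised Cy3 probe. Glucosamine-6-phosphate was flowed in at 40 μM to 10 mM in HEPES/KCl/Mg(OAc)2 buffer. Exponential fits to normalised per-tile medians gave kobs, and weighted Michaelis–Menten fits gave kcat and KM.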
In the case of G13C G62C A64C, the “self-cleavage kobs at 2500 uM GlcN6P” value was less than 1e-05 s⁻¹.
In the case of C8U G9U G63U, the “self-cleavage kobs at 2500 uM GlcN6P” value is less than 1e-05 s⁻¹.
The same measure, in the same setting: for U49C G63U G66C the value was less than 1e-05 s⁻¹; for C8A C11U A48U U56A, less than 1e-05 s⁻¹; for A6G A42C U69G, 0.000462 ± 0.00019 s⁻¹.
As for A6C G13U G60U U65C, the “self-cleavage kobs at 2500 uM GlcN6P” value is less than 1e-05 s⁻¹.
For G9A A15G C34G U55C C71G, the “self-cleavage kobs at 2500 uM GlcN6P” value is less than 1e-05 s⁻¹.
Still for that read-out and setting: the figure for G9A U31G G40C is less than 1e-05 s⁻¹; for G7U A12U G44U it is less than 1e-05 s⁻¹; for A12G G59C C67U it is 4.19e-05 ± 1.9e-05 s⁻¹.
Still for that read-out and setting: for G13A U46C G60A the value was less than 1e-05 s⁻¹; for A6G G7A C8U C61U, less than 1e-05 s⁻¹.
As to A52U C61G G63C G66A, the “self-cleavage kobs at 2500 uM GlcN6P” value is less than 1e-05 s⁻¹.
Still for that read-out and setting: for C8U A39U A64U the value was less than 1e-05 s⁻¹; for G13A G32C U54C, 0.000273 ± 9.2e-05 s⁻¹; for G40U U46G A48C, less than 1e-05 s⁻¹.
The same measure, in the same setting: the figure for A12U G32U G43C is less than 1e-05 s⁻¹.
G7U C16A U30C A52U G60U C71G: the “self-cleavage kobs at 2500 uM GlcN6P” value was less than 1e-05 s⁻¹.
With A14G G29A A36U, the “self-cleavage kobs at 2500 uM GlcN6P” value was less than 1e-05 s⁻¹.
Still for that read-out and setting: the figure for G38C U46C U49A is less than 1e-05 s⁻¹; for G40U C50A U56A C67G C71U it is less than 1e-05 s⁻¹.
On the same count and under the same terms, the figure for G9C G60A C67U is less than 1e-05 s⁻¹; for C11A C34A G60U it is less than 1e-05 s⁻¹.
The same measure, in the same setting: the figure for A12G G32C is 2.23e-05 ± 9.3e-06 s⁻¹.
With C34A G35U G59U, the “self-cleavage kobs at 2500 uM GlcN6P” value is less than 1e-05 s⁻¹.
For G32C G41C G43C C61A, the “self-cleavage kobs at 2500 uM GlcN6P” value was less than 1e-05 s⁻¹.
Same read-out and setting: the figure for G9U G29A G63A is less than 1e-05 s⁻¹; for C11U C50A G51U C61A it is 9.9e-05 ± 3.3e-05 s⁻¹; for G9C C11U G29C G59C it is less than 1e-05 s⁻¹.
On to U31G G41U G62U G66U, for which the “self-cleavage kobs at 2500 uM GlcN6P” value was less than 1e-05 s⁻¹.
On to A42U A48G A52G C58G, for which the “self-cleavage kobs at 2500 uM GlcN6P” value was less than 1e-05 s⁻¹.
On the same count and under the same terms, for G37U A39U G43U C67G the value was less than 1e-05 s⁻¹; for U47A G62C C68G C71G, 0.000178 ± 4.9e-05 s⁻¹; for C10U G13A A52U U69G, 4.08e-05 ± 1.4e-05 s⁻¹.
For C8G C10A G44U, the “self-cleavage kobs at 2500 uM GlcN6P” value was less than 1e-05 s⁻¹.
Still for that read-out and setting: for G37A G41A C61U the value was less than 1e-05 s⁻¹; for A33G G37A G62C, less than 1e-05 s⁻¹; for U56G G60U G63C, less than 1e-05 s⁻¹.
Turning to C10U G29U G38A, the “self-cleavage kobs at 2500 uM GlcN6P” value was 0.00158 ± 0.0007 s⁻¹.
On the same count and under the same terms, for A12G U56C C67U the value was less than 1e-05 s⁻¹.
Same read-out and setting: for C34U A52U A53G A64U C70U the value was less than 1e-05 s⁻¹.
Same read-out and setting: the figure for A15C G44A C58G G62U is less than 1e-05 s⁻¹; for G35C C58G G60U U65C it is less than 1e-05 s⁻¹.
C16U C34A G59C U69A: the “self-cleavage kobs at 2500 uM GlcN6P” value was less than 1e-05 s⁻¹.
Same read-out and setting: the figure for A14U G40C A64G is 6.98e-05 ± 1.7e-05 s⁻¹.
Regarding G40A C61G G66C C67A, the “self-cleavage kobs at 2500 uM GlcN6P” value is less than 1e-05 s⁻¹.
Still for that read-out and setting: the figure for U30G U57A G60U is less than 1e-05 s⁻¹; for C58G C67A C70U C71U it is 7.14e-05 ± 2.7e-05 s⁻¹.
Consider C34A G41A C50G, for which the “self-cleavage kobs at 2500 uM GlcN6P” value was less than 1e-05 s⁻¹.
A14U A39G G41U: the “self-cleavage kobs at 2500 uM GlcN6P” value is 0.000106 ± 2.6e-05 s⁻¹.
Still for that read-out and setting: for C34U G37C A42U the value was less than 1e-05 s⁻¹.
Regarding A15U G29A G35U G37A U54A, the “self-cleavage kobs at 2500 uM GlcN6P” value is less than 1e-05 s⁻¹.
The same measure, in the same setting: the figure for G32C A33C G63U G66A is less than 1e-05 s⁻¹; for C8G U30C A36C U69C it is less than 1e-05 s⁻¹.
The same measure, in the same setting: for U47G C58A C68A the value was 0.000116 ± 2.9e-05 s⁻¹; for A39C U47C U65A, 9.45e-05 ± 3.8e-05 s⁻¹.
On the same count and under the same terms, for C16U A36C A52C C61A the value was less than 1e-05 s⁻¹.
As to C16A G40U U54C C71U, the “self-cleavage kobs at 2500 uM GlcN6P” value was 8.78e-05 ± 1.5e-05 s⁻¹.
On to G29A A42C A64U, for which the “self-cleavage kobs at 2500 uM GlcN6P” value is less than 1e-05 s⁻¹.
With U31G G40U G60A, the “self-cleavage kobs at 2500 uM GlcN6P” value is less than 1e-05 s⁻¹.
On the same count and under the same terms, for A6G C34U A36C the value was less than 1e-05 s⁻¹; for G29U A36U C70G, 0.000444 ± 0.0001 s⁻¹.
For the variant C8A U45G U57A, the “self-cleavage kobs at 2500 uM GlcN6P” value is less than 1e-05 s⁻¹.
The same measure, in the same setting: for U46C G60A C70G the value was less than 1e-05 s⁻¹; for G9C G41A C70U, less than 1e-05 s⁻¹; for A6U G43A G51C, less than 1e-05 s⁻¹.
Take C34A A39U C50G C67G: the “self-cleavage kobs at 2500 uM GlcN6P” value turned out to be 0.000353 ± 6.7e-05 s⁻¹.
In the case of C34U G44U U49A, the “self-cleavage kobs at 2500 uM GlcN6P” value was less than 1e-05 s⁻¹.
Regarding A15U U30G C58U, the “self-cleavage kobs at 2500 uM GlcN6P” value was 2.92e-05 ± 1.5e-05 s⁻¹.
Take C50G G60U C61G U65A: the “self-cleavage kobs at 2500 uM GlcN6P” value came to 9.15e-05 ± 3e-05 s⁻¹.
As for A15C G38A C67U, the “self-cleavage kobs at 2500 uM GlcN6P” value is less than 1e-05 s⁻¹.
Same read-out and setting: for C61U G63C C71U the value was less than 1e-05 s⁻¹; for G41U U45C U56G, 7.1e-05 ± 3.2e-05 s⁻¹.
The same measure, in the same setting: the figure for A14G A53G G66A is 0.0162 ± 0.0057 s⁻¹.
With C11G G37A U49G G60U, the “self-cleavage kobs at 2500 uM GlcN6P” value is less than 1e-05 s⁻¹.
On the same count and under the same terms, for A12G A14U A64G the value was 0.000293 ± 7.2e-05 s⁻¹; for G35A A42U G44A, less than 1e-05 s⁻¹; for A15U G35U A48C A64U, less than 1e-05 s⁻¹.
Still for that read-out and setting: the figure for C8G A14G U55G C58U U65G is less than 1e-05 s⁻¹; for G7C G38A U49C A53C C61A it is less than 1e-05 s⁻¹.
On the same count and under the same terms, for G35U U47A C61A the value was less than 1e-05 s⁻¹; for A15G U45C U65G C67U, 0.000125 ± 3.7e-05 s⁻¹; for A14G G37C A39G, 6.41e-05 ± 1.9e-05 s⁻¹.
On to A6C U55G G59U C61A A64C, for which the “self-cleavage kobs at 2500 uM GlcN6P” value was less than 1e-05 s⁻¹.

The variants in the next data set derive from B1. Briefly: self-cleavage kobs at 10000 uM GlcN6P; higher = faster cleavage; RNA array. The note with it: with glucosamine-6-phosphate. In outline: as §1
Consider A12G G32C, for which the “self-cleavage kobs at 10000 uM GlcN6P” value came out at 3.88e-05 ± 7.6e-06 s⁻¹.
For the variant C8G U30C A36C U69C, the “self-cleavage kobs at 10000 uM GlcN6P” value is less than 1e-05 s⁻¹.
